12 molecules from patent US20240368260A1 (INSTITUT NATIONAL DE LA SANTE ET DE LA RECHERCHE MEDICALE, published 2024) can be followed below.

Test [1] addresses T1, recombinant human βIG-H3 (human, UniProt Q15582 24-683).
T1 construct: Bought recombinant protein; also called rhβIG-H3; rhbIG-H3
T1 sequence (looked up): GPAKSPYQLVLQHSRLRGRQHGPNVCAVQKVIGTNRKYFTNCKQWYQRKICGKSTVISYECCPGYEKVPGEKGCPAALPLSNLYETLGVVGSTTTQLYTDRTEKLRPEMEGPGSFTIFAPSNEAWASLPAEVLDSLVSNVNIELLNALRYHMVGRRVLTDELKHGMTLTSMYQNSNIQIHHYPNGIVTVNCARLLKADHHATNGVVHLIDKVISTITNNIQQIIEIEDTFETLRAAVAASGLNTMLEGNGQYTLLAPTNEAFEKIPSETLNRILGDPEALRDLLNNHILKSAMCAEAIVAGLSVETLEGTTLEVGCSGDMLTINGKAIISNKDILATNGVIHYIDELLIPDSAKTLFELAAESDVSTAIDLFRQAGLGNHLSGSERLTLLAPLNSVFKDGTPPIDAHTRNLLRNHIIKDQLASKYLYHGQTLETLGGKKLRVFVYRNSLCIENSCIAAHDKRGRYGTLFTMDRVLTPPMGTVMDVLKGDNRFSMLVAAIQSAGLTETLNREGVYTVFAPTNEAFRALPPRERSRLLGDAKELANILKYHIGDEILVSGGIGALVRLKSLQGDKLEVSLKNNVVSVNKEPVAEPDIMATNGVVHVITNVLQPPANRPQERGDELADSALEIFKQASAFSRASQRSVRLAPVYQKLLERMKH
Briefly: direct ELISA on coated rhβIG-H3.

Test [2] addresses T1, recombinant human βIG-H3. As to the kind of experiment: direct ELISA on coated rhβIG-H3, anti-human IgG-HRP.
The target in test [3] is T1, recombinant human βIG-H3. As to the kind of experiment: SPR Biacore T200, antibody captured via anti-human IgG, rhbIG-H3 as analyte, 1:1 fit, mean of n=3. How it is done:
(§1) The assays were conducted using Biacore T200 instrument. It was performed in 2 steps: [0324] The first step, called suitability test, was aiming at determining the optimal conditions to run the assay: here, best sensor chip and running buffer conditions are assessed to defined best signal/noise ratio. [0325] The second step is the run itself that was performed in triplicate to ensure reproducibility and robustness of the results.
(§2) For the first step, 2 sensors and various buffer conditions were assessed using the parental and Chimeric 18B3 mAbs as a reference. It was then defined that sensor Chip C1 was the most appropriate, and buffer containing 300 mM NaCl and 0.25 mg/mL BSA was reducing the non-specific binding and increased the signal.
(§3) Rate constants (kₐ, kd) and equilibrium dissociation constants (KD) of rhbIG-H3 interaction with six antibodies determined by SPR. Experimental data were fitted to a 1:1 binding model. Listed are mean values ±SD of n=3 independent experiments.

Test [4] addresses T1, recombinant human βIG-H3. Briefly: SPR single cycle kinetics, mAb captured via anti-human IgG (Fc) on CM5, hβIG-H3 5-100 nM as analyte, 1:1 model; SCK1 Fc2. As to the method:
(§4) Anti-Human IgG (Fc) antibody is chemically grafted on a CM5 sensorchip using amine coupling according to the Cytivia 22064888AF notice. Briefly, surface is first activated by injection of a NHS-EDC mixture. Then, several injections (3 on the 10 available on the kit) of Anti-Human IgG (25 μg/ml in immobilization buffer) adjusting the contact time are performed. Finally, the surfaces are deactivated with ethanolamine 1M pH 8.5.
(§5) A negative control Ab is immobilized on sensor flowcell 1 (Fc 1) and positive control (chimeric 18B3 mAB) on Fc 2. 18B3 variants Abs are immobilized on Fc3 and Fc4:
(§6) Injection of increasing concentrations (5; 10; 25; 50; 100 nM) of antigen (hβIG-H3) during 180 s is performed on each flowcell. Short dissociations are performed in RB between each antigen concentration. After injection of the highest antigen concentration (100 nM), a dissociation in RB is recorded during 3600 s. [0348] Three similar cycles with five injections of RB are carried out before the cycle of Antigen in order to perform double subtraction procedure (Blank run). [0349] Three similar cycles with five injection of RB and a dissociation time of 600 s are performed before the blank runs in order to stabilize the system (Startup run).

Test [5] has as its target T1, recombinant human βIG-H3. Briefly: SPR single cycle kinetics, mAb captured via anti-human IgG (Fc) on CM5, hβIG-H3 5-100 nM as analyte, 1:1 model; SCK2 Fc2. How it is done: as §4, §5, §6
Test [6] addresses T1, recombinant human βIG-H3. As to the kind of experiment: SPR Biacore T200, antibody captured via anti-mouse IgG, rhbIG-H3 as analyte, 1:1 fit, mean of n=3. As to the method: as §1, §2, §3
In test [7] the target is T1, recombinant human βIG-H3. As to the kind of experiment: SPR single cycle kinetics, mAb captured via anti-human IgG (Fc) on CM5, hβIG-H3 5-100 nM as analyte, 1:1 model; SCK1 Fc3. How it is done: as §4, §5, §6
For test [8], the target named is T1, recombinant human βIG-H3. Briefly: SPR single cycle kinetics, mAb captured via anti-human IgG (Fc) on CM5, hβIG-H3 5-100 nM as analyte, 1:1 model; SCK2 Fc3. How it is done: as §4, §5, §6

B1: H-169/L-315 (antibody, human IgG1, kappa, V domains shown)
VH: QVQLVQSGAEVKKPGSSVKVSCKASGFTFSDYYMYWVRQAPGQGLEWVGTISDGGIYAYYAQKVQGRFTITRDSSTSTLYLELSSLRSEDTAVYYCVRGWDRYDSWFACWGQGTTVTVSS
VL: EIVMTQSPATLSVSPGERATMSCRASQSLLYSSNQKNYLAWYQQKPGQAPRLLIYWASTRETGIPARFSGSGSGTEFTLTISSLQSEDFAVYYCQQYYRYPYTFGQGTKLEIKR
As for B1, the binding result in test [1] was “binds”.

B2: H-169/L-41 (antibody, human IgG1, kappa, V domains shown)
VH: QVQLVQSGAEVKKPGSSVKVSCKASGFTFSDYYMYWVRQAPGQGLEWVGTISDGGIYAYYAQKVQGRFTITRDSSTSTLYLELSSLRSEDTAVYYCVRGWDRYDSWFACWGQGTTVTVSS
VL: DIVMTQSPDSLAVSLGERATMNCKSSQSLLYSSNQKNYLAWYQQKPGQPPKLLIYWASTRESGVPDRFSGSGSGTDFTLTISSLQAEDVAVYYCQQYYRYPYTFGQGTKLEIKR
On to B2, for which, in test [1], the binding result was “binds”.

B3: H-311/L-315 (antibody, human IgG1, kappa, V domains shown)
VH: QVQLVESGGGLVKPGGSLRLSCAASGFTFSDYYMYWIRQAPGKGLEWVATISDGGIYIYYADSVKGRFTISRDSAKNSLYLQMNSLRAEDTAVYYCVRGWDRYDSWFACWGQGTTVTVSS
VL: EIVMTQSPATLSVSPGERATMSCRASQSLLYSSNQKNYLAWYQQKPGQAPRLLIYWASTRETGIPARFSGSGSGTEFTLTISSLQSEDFAVYYCQQYYRYPYTFGQGTKLEIKR
For B3, the binding result in test [1] is “binds”.

B4: H-169/L-228 (antibody, human IgG1, kappa, V domains shown)
VH: QVQLVQSGAEVKKPGSSVKVSCKASGFTFSDYYMYWVRQAPGQGLEWVGTISDGGIYAYYAQKVQGRFTITRDSSTSTLYLELSSLRSEDTAVYYCVRGWDRYDSWFACWGQGTTVTVSS
VL: DIVMTQSPLSLPVTPGEPASMSCRSSQSLLYSSNQKNYLAWYLQKPGQSPQLLIYWGSTRESGVPDRFSGSGSGTDFTLKISRVEAEDVGVYYCQQYYRYPYTFGQGTKLEIKR
Consider B4, for which the binding result in test [1] is “binds”.

B5: H-330/L-315 (antibody, human IgG1, kappa, V domains shown)
VH: QVQLVESGGGVVQPGGSLRLSCAASGFTFSDYYMYWVRQAPGKGLEWVATISDGGIYKYYADSVKGRFTISRDSSKNTLYLQMNSLRAEDTAVYYCVRGWDRYDSWFACWGQGTTVTVSS
VL: EIVMTQSPATLSVSPGERATMSCRASQSLLYSSNQKNYLAWYQQKPGQAPRLLIYWASTRETGIPARFSGSGSGTEFTLTISSLQSEDFAVYYCQQYYRYPYTFGQGTKLEIKR
With B5, the binding result in test [1] is recorded as “binds”.

B6: Chimeric huIgG1 k 18B3 (antibody, V domains shown)
VH: EVQLVESGGGLVKPGGSLKLSCAASGFTFSDYYMYWVRQTPEKRLEWVATISDGGIYTYYPDSVKGRFTISRDSAKNNLYLQMTSLKSDDTAMYYCVRGWDRYDSWFACWGQGTLVTVSA
VL: DIVMSQSPSSLVVSAGEKVTMTCKSSQSLLYSSNQKNYLAWYRQKPGQSPKLLIYWASTRESGVPDRFTGSGSGTDFTLTISSVKAEDLAVYYCQQYYRYPYTFGGGTKLEIKR
notes: also called ch18B3; 18B3 chim
Regarding B6, in test [2], the “ELISA Titer” value was 0.03 µg/mL. The values for the Kd in test [3], in test [4] and in test [5] were 0.187 nM, 0.0627 nM and 0.0854 nM, respectively. Besides, the values for the koff in test [3], in test [4] and in test [5] were 0.000247 s⁻¹, 0.00013 s⁻¹ and 0.00016 s⁻¹, respectively. Besides, the kon in test [3] came out at 1.32e+06 M⁻¹ s⁻¹; in test [4], 2.06e+06 M⁻¹ s⁻¹; in test [5], 1.87e+06 M⁻¹ s⁻¹.

B7: Mouse monoclonal 18B3 (antibody, V domains shown)
VH: EVQLVESGGGLVKPGGSLKLSCAASGFTFSDYYMYWVRQTPEKRLEWVATISDGGIYTYYPDSVKGRFTISRDSAKNNLYLQMTSLKSDDTAMYYCVRGWDRYDSWFACWGQGTLVTVSA
VL: DIVMSQSPSSLVVSAGEKVTMTCKSSQSLLYSSNQKNYLAWYRQKPGQSPKLLIYWASTRESGVPDRFTGSGSGTDFTLTISSVKAEDLAVYYCQQYYRYPYTFGGGTKLEIK
notes: Mouse IgG1/k from hybridoma; also called m18B3; murine 18B3 mAb
As for B7, in test [6], the Kd came to 0.411 nM, the koff stood at 0.000234 s⁻¹ and the on-rate constant (kon) stood at 572000 M⁻¹ s⁻¹.

B8: Humanized 18B3 B (H330-V1/L41-V1) (antibody, human IgG1, kappa, V domains shown)
VH: QVQLVESGGGVVQPGGSLRLSCAASGFTFSDYYMYWVRQAPGKGLEWVATISDGGIYKYYADSVKGRFTISRDSSKNTLYLQMNSLRAEDTAVYYCVRGWDRYDSWFACWGQGTTVTVSS
VL: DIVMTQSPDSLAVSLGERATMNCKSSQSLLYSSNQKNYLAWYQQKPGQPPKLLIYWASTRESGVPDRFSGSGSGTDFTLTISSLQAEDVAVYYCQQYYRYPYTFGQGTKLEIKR
notes: also called H-330/L-41; H330/L41
As to B8, the “ELISA Titer” value in test [2] is 0.047 µg/mL. For the same molecule, in test [3], the equilibrium dissociation constant (Kd) is 0.535 nM, the koff was 0.000659 s⁻¹ and the kon stood at 1.23e+06 M⁻¹ s⁻¹.

B9: Humanized 18B3 E (H330-V1/L228-V1) (antibody, human IgG1, kappa, V domains shown)
VH: QVQLVESGGGVVQPGGSLRLSCAASGFTFSDYYMYWVRQAPGKGLEWVATISDGGIYKYYADSVKGRFTISRDSSKNTLYLQMNSLRAEDTAVYYCVRGWDRYDSWFACWGQGTTVTVSS
VL: DIVMTQSPLSLPVTPGEPASMSCRSSQSLLYSSNQKNYLAWYLQKPGQSPQLLIYWGSTRESGVPDRFSGSGSGTDFTLKISRVEAEDVGVYYCQQYYRYPYTFGQGTKLEIKR
notes: also called H330/L228
For B9, the “ELISA Titer” value in test [2] worked out at 0.04 µg/mL. In test [3], the Kd amounted to 0.476 nM, the koff stood at 0.000583 s⁻¹ and the kon came to 1.23e+06 M⁻¹ s⁻¹.

B10: 18B3 H330-V1.2/L41-V1 (antibody, human IgG1, kappa, V domains shown)
VH: QVQLVESGGGVVQPGGSLRLSCAASGFTFSDYYMYWVRQAPGKGLEWVATISDGGIYKYYADSVKGRFTISRDSSKNTLYLQMNSLRAEDTAVYYCVRGWDRYDSWFASWGQGTTVTVSS
VL: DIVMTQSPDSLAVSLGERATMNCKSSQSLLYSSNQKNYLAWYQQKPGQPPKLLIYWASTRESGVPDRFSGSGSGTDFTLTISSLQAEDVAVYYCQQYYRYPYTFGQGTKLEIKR
notes: also called H-330/L-41 V1.2; H330C102S/L-41
As to B10, in test [2], the “ELISA Titer” value turned out to be 0.0038 µg/mL. For the same molecule, in test [7], the dissociation constant (Kd) stood at 0.124 nM, the koff was 0.000798 s⁻¹ and the kon is 6.46e+06 M⁻¹ s⁻¹. In test [8], the Kd stood at 0.169 nM, the koff was determined as 0.000659 s⁻¹ and the kon is 3.9e+06 M⁻¹ s⁻¹.

B11: Humanized 18B3 D (H311-V1/L228-V1) (antibody, human IgG1, kappa, V domains shown)
VH: QVQLVESGGGLVKPGGSLRLSCAASGFTFSDYYMYWIRQAPGKGLEWVATISDGGIYIYYADSVKGRFTISRDSAKNSLYLQMNSLRAEDTAVYYCVRGWDRYDSWFACWGQGTTVTVSS
VL: DIVMTQSPLSLPVTPGEPASMSCRSSQSLLYSSNQKNYLAWYLQKPGQSPQLLIYWGSTRESGVPDRFSGSGSGTDFTLKISRVEAEDVGVYYCQQYYRYPYTFGQGTKLEIKR
notes: also called H311/L228
As for B11, the “ELISA Titer” value in test [2] came out at 0.046 µg/mL. Further, in test [3], the Kd was found to be 0.49 nM, the koff was determined as 0.000707 s⁻¹ and the kon amounted to 1.45e+06 M⁻¹ s⁻¹.

B12: Humanized 18B3 A (H311-V1/L41-V1) (antibody, human IgG1, kappa, V domains shown)
VH: QVQLVESGGGLVKPGGSLRLSCAASGFTFSDYYMYWIRQAPGKGLEWVATISDGGIYIYYADSVKGRFTISRDSAKNSLYLQMNSLRAEDTAVYYCVRGWDRYDSWFACWGQGTTVTVSS
VL: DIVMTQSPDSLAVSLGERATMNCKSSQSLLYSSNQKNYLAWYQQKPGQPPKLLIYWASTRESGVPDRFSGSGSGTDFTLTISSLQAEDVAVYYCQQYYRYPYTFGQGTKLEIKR
notes: also called H311/L41
On to B12, for which the “ELISA Titer” value in test [2] worked out at 0.041 µg/mL. Moreover, in test [3], the Kd came out at 0.482 nM, the koff is 0.000726 s⁻¹ and the kon was found to be 1.5e+06 M⁻¹ s⁻¹.
